B1: SH2 domain-containing protein 3C (Mus musculus), Q9QZS8-1 (parent)
chain: MTEMPKKTGRKFKFFKFKGLGSLSNLPRSFSLRRSSASASIRSCPEPDTFEATQDDMVTLPKSPPAYARSSDMYSHMGTMPRPNIKKAQKQQAVQKAQEVSRESHLVSRRLPEPPDLEAAKEAGEGTEALLEDTAPSAVEVDPMRELEDLTVDTEKEQVPGDVSPERTAAELEAAGDYVKFSKEKYILDSSPEKLHKELEEELKLSSTDLRSHAWYHGRIPREVSETLVQRNGDFLIRDSLTSLGDYVLTCRWHNQALHFKINKVVVKAGESYTHIRYLFEQESFDHVPALVRYHVGSRKAVSEQSGAIIYCPVNRTFPLRYLEASYGLSQGSSKTASPASPSGSKGSHMKRRSITMTDGLTTDKVTRSDGCPNSTSLPHPRDSIRNCALSMDQIPDLHSPLSPISESPSSPAYSTVTRVHAPSATPSTSAQPASPVARRSSEPQLCPGNTPKPPGESDRAPHASPSHTLCKASPSPSLSSYSDPDSGHYCQLQPPVRGSREQAAGETPRKARGSGERQKELLENGVSDGEWGKTFTVPVVEATSSFNLATFQSQLIPKENRPLEVALLRKVKELLSEVDARTLARHVTKVDCLVARILGVTKEMQTLMGVRWGMELLTLPHGRQLRLDLLERFHTMSIMLAVDILGCTGSAEERAALLHKTIQLAAELRGTMGNMFSFAAVMGALEMAQISRLEQTWMTLRQRHTEGAILYEKKLKPFLKSLNEGKEGPPLSNTTFPHVLPFITLLECDSAPAEGPEPWGSTEHGVEVVLAHLEAARTVAHHGGLYHTNAEVKLQGFQARPELLEVFSTEFQMRLLWGSQGANSSQAWRYEKFDKVLTALSHKLEPAIRSSEL
partner: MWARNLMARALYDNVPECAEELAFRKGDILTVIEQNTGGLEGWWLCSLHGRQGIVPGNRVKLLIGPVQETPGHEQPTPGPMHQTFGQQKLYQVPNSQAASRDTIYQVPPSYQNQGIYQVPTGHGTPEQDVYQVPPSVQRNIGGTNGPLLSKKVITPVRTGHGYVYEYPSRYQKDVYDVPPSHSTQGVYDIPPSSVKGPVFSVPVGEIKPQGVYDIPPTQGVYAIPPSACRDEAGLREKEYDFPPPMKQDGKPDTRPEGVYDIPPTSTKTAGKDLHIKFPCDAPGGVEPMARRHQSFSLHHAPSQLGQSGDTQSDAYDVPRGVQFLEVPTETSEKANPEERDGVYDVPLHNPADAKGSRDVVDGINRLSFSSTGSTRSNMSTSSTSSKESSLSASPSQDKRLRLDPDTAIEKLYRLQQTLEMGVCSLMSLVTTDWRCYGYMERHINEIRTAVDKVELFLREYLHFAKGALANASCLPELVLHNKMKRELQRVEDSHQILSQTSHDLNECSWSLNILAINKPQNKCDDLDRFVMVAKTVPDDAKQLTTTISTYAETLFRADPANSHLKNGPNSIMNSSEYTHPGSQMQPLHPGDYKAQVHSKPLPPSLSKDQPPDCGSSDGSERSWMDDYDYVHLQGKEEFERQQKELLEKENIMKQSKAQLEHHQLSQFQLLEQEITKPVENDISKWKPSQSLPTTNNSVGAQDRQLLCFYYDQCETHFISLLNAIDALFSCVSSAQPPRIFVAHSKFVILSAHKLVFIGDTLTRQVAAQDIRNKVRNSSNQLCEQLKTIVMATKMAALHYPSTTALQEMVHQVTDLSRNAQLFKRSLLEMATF

This assay covers variants of B1. Particulars: with casl_mouse Nedd9, O35177.
Regarding Y787E, the “effect of a mutation on the interaction” value is listed as “disrupting interaction”.

(Values after IntAct's records for PubMed 20956287.)
